Measurements taken from article PMC6860931, “Role of the malic enzyme in metabolism of the halotolerant methanotroph Methylotuvimicrobium alcaliphilum 20Z” (PLoS ONE, 2019).

Columns and labels:
purified protein [1] = substrate: NC(=O)c1ccc[n+]([C@@H]2O[C@H](COP(=O)(O)OP(=O)(O)OC[C@H]3O[C@@H](n4cnc5c(N)ncnc54)[C@H](O)[C@@H]3O)[C@@H](O)[C@H]2O)c1; experiment: purified protein; assay type: biochemical, Methylotuvimicrobium alcaliphilum; details: malate as co-substrate, assay mixture 10 mM malate, 2.5 mM MgCl2, 50 mM Tris-HCl, pH 9.0, 30°C, varied: cofactor
purified protein [2] = substrate: O=C(O)C[C@H](O)C(=O)O; experiment: purified protein; details: NAD+ as co-substrate, assay mixture 0.3 mM NAD+, 2.5 mM MgCl2, 50 mM Tris-HCl, pH 9.0, 30°C

B1: Mae (malic enzyme from Mtm. alcaliphilum 20Z) (Methylotuvimicrobium alcaliphilum 20Z) (protein)
chain: MTAMSKTPLYIPYAGPALLEMPLLNKGCAFSKEERQTFNLTGLLPPRYETIEEQVQRAYLQYSSFRNAINKHIYLRSIQDNNETLFYRLLQDHLPEMLPIIYTPTVGDACEQFSDIYRSSRGLFISYVDRQQIDDILRNTTKRNVKIIVVTDGERVLGLGDQGIGGMGISIGKLSLYTACGGISPAYTLPVVLDVGTNNEKLLQDPMYMGERHRRIPQAEYDAFIDFFLQAVKRRWPDVIVQFEDFAQPNAMPILQRYRDQLCCFNDDIQGTAAVTVGTLLAACRVKNRKLSEQRVVFVGAGSAGCGIAEQVIAQMRTEGLSDREARHRVYMVDRFGLLTESMTGLRDFQQKLVQVSNRLEDWSIESDYPSLLEVIQYAKPTVLIGVSGQHGIFTETVIRTMTQGCDWPIIFPLSNPPRQVEATPEQIIEWTEGRVLLAAGSPFPPVEYGGKRYDVTQCNNSYIFPGIGLGVIAVQARRISDEMLIAASETLAAASPLANTGQGELLPPLTELPELSKRIAFAVGKVALKQNLALEISDEQLLKSIEENFWQPVYRHYKRVCF
notes: full-length, 1689 bp gene, pET22b(+) NdeI/XhoI, His6-tagged, E. coli BL21 (DE3), Ni-NTA
In the case of B1, the Km (purified protein [1]) is reported as 57 ± 5 µM and the Km (purified protein [2]) is reported as 5500 ± 800 µM.
